Article PMC6370856, “Peptidyl prolyl cis/trans isomerase activity on the cell surface correlates with extracellular matrix development” (Communications Biology, 2019)

Experiments:
[1] = system: mixture of Jurkat T lymphocyte and the plasma protein fibrinogen; assay: Viscosity/shear rate measurement of Jurkat cells in fibrinogen solution; type: cell-based
Excerpt: Since PPIases can catalyze the dynamic rearrangement of the dense ECM polymer network, we speculated that PPIases could also affect the dynamic interaction between cells and the ECM. Probing the influence of transient prolyl isomerization on cell–ECM interaction is difficult. Studying cell adhesion by the treatment of PPIase inhibitors cannot distinguish extracellular and intracellular factors as well as receptor-mediated signaling due to the long assay time. In order to reflect the highly dynamic process, we measured the viscosity of plasma protein solution with cells. Blood is a shear-thinning non-Newtonian fluid, and its viscosity is largely affected by the interaction between cells and plasma proteins, for example, the coagulation process. We investigated whether the catalyzed isomerization could also influence the interaction between blood cells and plasma proteins, thus affecting the viscosity. We performed viscosity/shear rate measurements using a mixture of Jurkat T lymphocyte and the plasma protein fibrinogen.
The machine used for viscosity is the same as for stiffness measurements. To 30 µL of 4 mg mL^−1 fibrinogen, an equal volume of Jurkat cells (8 × 10^7 mL^−1 in PBS, washed two times with PBS before used; Jurkat cells ocupated around 20% of the volume) was added. The mixture was pipetted up and down six times, kept on ice for 10 min, and then transferred to the rheometer plater (25 °C) for measurements. The plate temperature was raised to 37 °C. The measurement was performed by increasing shear rate ramp liner from 100 to 1000 s^−1. Hundred data points were collected during the measurements. For each condition, two independent experiments were performed (Fig. 1c and Supplementary Fig. 3).

Jurkat cells [2] = assay: Cellular uptake of TAMRA compounds by Jurkat cells (flow cytometry); type: cell-based; settings: 100 nM TAMRA compounds, 1 and 24 hours, compared with Cs9-TAMRA
Procedure: A final concentration of 100 nM DNA-conjugated TAMRA compounds and Cs9TAMRA was incubated with Jurkat cells for 1 h or 24 h, the cells were pelleted by centrifugation at 1000 rpm for 5 min, the pellet was washed one time with fluorescent-activated cell sorting (FACS) buffer (PBS with 1% bovine serum albumin), and resuspended in FACS buffer. BD FACS Canto™ II Flow Cytometer was used to analyze the uptake of these compounds by Jurkat cells (Supplementary Fig. 5).

Jurkat cells [3] = assay: Stability of DNA-conjugated compounds under Jurkat cell treatment (LC/MS); type: in vitro ADME; settings: CsA-DNA 500 nM, SLF-DNA 1000 nM, two independent experiments
Procedure: A designed concentration of DNA-conjugated compounds (30 µL in PBS) was incubated with 30 µL of PBS or the cell on ice for 10 min, then 20 min at 37 °C, which is much longer then the viscosity assay time. All the samples were centrifuged at 1000 rpm for 3 min, and then, 30 µL of the supernatant was transferred to MS tube for LC/MS analysis (Supplementary Fig. 4).

[4] = PPIase activity of His-CypB immobilized on Ni-NTA silica; type: biochemical; settings: 25 pmol immobilized on Ni-NTA silica showed a similar activity to 1 pmol free control
Procedure: Ten microliters of His-CypB (2.5 µM, 2 µM, 1.5 µM, and 1 µM) was incubated with 10 µL of settled Ni-NTA macroporous silica (Ni-NTA Spin Kit; Qiagen) for 30 min at 0 °C. Subsequently, 80 µL of HEPES buffer was added and incubated for another 10 min with gentle shaking. The silica was precipitated by gravity for 10 min. Eighty microliters were taken from the supernatant and measured along with the silica fraction (the remaining 20 µL) for PPIase activity. The amounts of CypB in the wells were 25, 20, 15, and 10 pmol. Additionally, the activity of 10 µL of 100 nM His-CypB in solution was measured. Three independent experiments were performed. The result is shown in Supplementary Fig. 9.

Substance: CsA-DNA: CsA-conjugated oligonucleotide, 5-amino modifier C6-CTCTTCCGATCTC (chemistry not fully specified)
- effect on viscosity of cell/fibrinogen mixture ([1]; Jurkat T lymphocyte and fibrinogen, shear rate 100-1000 s^-1): reduced viscosity
- Viscosity Mean ([1]; shear rate 102 s-1): 3.276 mPa·s
- Viscosity Mean ([1]; shear rate 112 s-1): 2.725 mPa·s
- Viscosity Mean ([1]; shear rate 122 s-1): 2.3889 mPa·s
- Viscosity Mean ([1]; shear rate 132 s-1): 2.173 mPa·s
- Viscosity Mean ([1]; shear rate 142 s-1): 1.975 mPa·s
- Viscosity Mean ([1]; shear rate 152 s-1): 1.931 mPa·s
- Viscosity Mean ([1]; shear rate 162 s-1): 1.858 mPa·s
- Viscosity Mean ([1]; shear rate 173 s-1): 1.71 mPa·s
- Viscosity Mean ([1]; shear rate 183 s-1): 1.682 mPa·s
- Viscosity Mean ([1]; shear rate 193 s-1): 1.63 mPa·s
- Viscosity Mean ([1]; shear rate 203 s-1): 1.558 mPa·s
- Viscosity Mean ([1]; shear rate 253 s-1): 1.438 mPa·s
- Viscosity Mean ([1]; shear rate 263 s-1): 1.4013 mPa·s
- Viscosity Mean ([1]; shear rate 284 s-1): 1.361 mPa·s
- Viscosity Mean ([1]; shear rate 304 s-1): 1.331 mPa·s
- Viscosity Mean ([1]; shear rate 334 s-1): 1.301 mPa·s
- Viscosity Mean ([1]; shear rate 344 s-1): 1.29 mPa·s
- Viscosity Mean ([1]; shear rate 354 s-1): 1.29 mPa·s
- Viscosity Mean ([1]; shear rate 364 s-1): 1.269 mPa·s
- Viscosity Mean ([1]; shear rate 374 s-1): 1.245 mPa·s
- Viscosity Mean ([1]; shear rate 384 s-1): 1.237 mPa·s
- Viscosity Mean ([1]; shear rate 395 s-1): 1.237 mPa·s
- Viscosity Mean ([1]; shear rate 415 s-1): 1.212 mPa·s
- Viscosity Mean ([1]; shear rate 425 s-1): 1.198 mPa·s
- Viscosity Mean ([1]; shear rate 475 s-1): 1.142 mPa·s
- Viscosity Mean ([1]; shear rate 526 s-1): 1.138 mPa·s
- Viscosity Mean ([1]; shear rate 556 s-1): 1.137 mPa·s
- Viscosity Mean ([1]; shear rate 576 s-1): 1.139 mPa·s
- Viscosity Mean ([1]; shear rate 909 s-1): 0.9613 mPa·s
- Viscosity Mean ([1]; shear rate 919 s-1): 1.096 mPa·s
- Viscosity Mean ([1]; shear rate 929 s-1): 0.9906 mPa·s
- Viscosity Mean ([1]; shear rate 939 s-1): 0.9737 mPa·s
- Viscosity Mean ([1]; shear rate 980 s-1): 0.896 mPa·s
- Viscosity Mean ([1]; shear rate 990 s-1): 0.87 mPa·s
- Viscosity Mean ([1]; shear rate 1000 s-1): 0.9112 mPa·s
- cell entry / uptake by Jurkat cells (Jurkat cells [2]): do not enter into cells
- area of UV absorbance at 260 nm in supernatant (Jurkat cells [3]; Jurkat cell 4 X 107/mL treatment): 3054±270
- area of UV absorbance at 260 nm in supernatant (Jurkat cells [3]; PBS control): 2218±11

Substance: His-CypB: recombinant His-tagged cyclophilin B, immobilized on Ni-NTA macroporous silica
- catalytic activity of immobilized enzyme versus free enzyme in solution [4]: diminished catalytic activity
